According to patent US20090136547A1, “ZWITTERIONIZATION OF CAPSULAR SACCHARIDES” (NOVARTIS VACCINES AND DIAGNOSTICS SRL, priority 2005, published 2009):
Ends that are not written are not given here. * marks the point of attachment. Palmitoyl = CCCCCCCCCCCCCCCC(=O)*

Target: T1, TLR2 receptor (Homo sapiens, UniProt O60603)
T1 construct: endogenous in cells; host or cells: purified monocytes
Assay: Monocyte activation (TNFα, CD80/MHC-II) in absence or presence of anti-TLR2 antibody
Type: cell-based
Settings: FIG. 29 and FIG. 30

T1 sequence (O60603 21-784): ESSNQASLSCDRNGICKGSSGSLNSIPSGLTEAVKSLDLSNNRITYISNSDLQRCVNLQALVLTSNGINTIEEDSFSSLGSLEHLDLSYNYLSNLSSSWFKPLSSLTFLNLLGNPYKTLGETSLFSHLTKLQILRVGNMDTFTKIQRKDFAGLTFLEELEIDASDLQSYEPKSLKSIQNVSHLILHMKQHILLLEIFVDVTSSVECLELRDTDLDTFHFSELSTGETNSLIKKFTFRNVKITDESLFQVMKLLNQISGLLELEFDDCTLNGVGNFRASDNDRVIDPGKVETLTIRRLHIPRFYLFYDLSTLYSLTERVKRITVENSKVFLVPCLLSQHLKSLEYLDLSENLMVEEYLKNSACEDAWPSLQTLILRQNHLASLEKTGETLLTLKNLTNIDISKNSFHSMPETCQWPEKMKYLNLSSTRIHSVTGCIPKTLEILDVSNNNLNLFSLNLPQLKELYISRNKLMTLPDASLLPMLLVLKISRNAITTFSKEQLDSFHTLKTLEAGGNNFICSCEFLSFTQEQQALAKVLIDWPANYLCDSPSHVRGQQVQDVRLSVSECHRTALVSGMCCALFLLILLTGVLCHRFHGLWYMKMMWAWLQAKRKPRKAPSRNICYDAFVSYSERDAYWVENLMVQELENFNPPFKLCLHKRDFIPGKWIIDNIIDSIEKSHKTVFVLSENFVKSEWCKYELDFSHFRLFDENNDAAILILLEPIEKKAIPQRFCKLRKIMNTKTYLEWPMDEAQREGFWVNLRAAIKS

N-palmitoyl-S-[2,3-bis(palmitoyloxy)-(2R,S)-propyl]-(R)-cysteinyl-seryl-(lysyl)(3)-lysine (Palmitoyl-C(2,3‑bis(palmitoyloxy)‑(2R,S)‑propyl)SKKKK) [PAMcsk, synthetic lipopeptide positive control]
effect of anti-TLR2 antibody on activation (TNFα assay, CD80/MHC-II assay): able to block activation
